According to patent US20230190932A1 (Genentech, Inc., priority 2021, published 2023):
“Also recorded” adds a separate entry of the source.

Legend:
CD4+ and CD8+ T-cell = conditions: Haslett et al. 1998; Davies et al. 2001; cited from earlier work
[1] = Chen N et al. Clin Pharmacokinet. 2017; cited from earlier work
R/R NHL patients [2] = experiment: Related study with monotherapy mosunetuzumab (IV): safety summary
[3] = Study CO41942: mosunetuzumab pharmacokinetics in combination with lenalidomide vs popPK simulation of monotherapy (Study GO29781); assay type: in vivo, human; conditions: 1/2/30 mg IV Q4W; N = 13; preliminary
[4] = system: patients with relapsed or refractory follicular lymphoma; conditions: in vivo
Method: Patients with r/r FL after at least one prior systemic therapy are eligible to enter the study.
Lenalidomide 20 mg was the dose for all patients.

R/R NHL patients [5] = conditions: in vivo

Nc1cccc2c1CN(C1CCC(=O)NC1=O)C2=O (racemic) [lenalidomide, (3RS)-3-(4-Amino-1-oxo-1,3-dihydro-2H-isoindol-2-yl)piperidine-2,6-dione]
immunomodulatory activity on T cells (CD4+ and CD8+ T-cell): enhance CD4+ and CD8+ T-cell co-stimulation, induce T-cell proliferation, and enhance IL-2 and IFN-γ | route of excretion [1]: primarily excreted in the urine

Mosunetuzumab: anti-CD20/anti-CD3 bispecific antibody, INN List 117, CAS Registry Number 1905409-39-3
AESI: ALT increased (R/R NHL patients [2]; N = 213): 22 (10.3) N (%) | AESI: AST increased (R/R NHL patients [2]; N = 213): 14 (6.6) N (%) | AESI: Febrile neutropenia (R/R NHL patients [2]; N = 213): 6 (2.8) N (%) | AESI: Thrombocytopenia (R/R NHL patients [2]; N = 213): 14 (6.6) N (%) | AESI: Tumor flare (R/R NHL patients [2]; N = 213): 4 (1.9) N (%) | AESI: Tumor lysis syndrome (R/R NHL patients [2]; N = 213): 3 (1.4) N (%) | AEs leading to dose modification/interruption (R/R NHL patients [2]; N = 213): 29 (13.6) N (%) | AEs leading to dose modification/interruption: Mosunetuzumab (R/R NHL patients [2]; N = 213): 29 (13.6) N (%) | AEs leading to treatment withdrawal (R/R NHL patients [2]; N = 213): 7 (3.3) N (%) | AEs leading to treatment withdrawal: Mosunetuzumab (R/R NHL patients [2]; N = 213): 7 (3.3) N (%) | Deaths (R/R NHL patients [2]; N = 213): 64 (30.0) N (%) | Grade 3-5 AEs (R/R NHL patients [2]; N = 213): 141 (66.2) N (%) | Patients who experienced at least one adverse event (AE) (R/R NHL patients [2]; N = 213): 207 (97.2) N (%) | Serious AEs (R/R NHL patients [2]; N = 213): 107 (50.2) N (%) | Total number of AEs (R/R NHL patients [2]; N = 213): 2258 | Treatment-related AEs (R/R NHL patients [2]; N = 213): 183 (85.9) N (%) | Treatment-related AEs: Mosunetuzumab (R/R NHL patients [2]; N = 213): 183 (85.9) N (%) | Fatal AEs (R/R NHL patients [2]; N = 213, does not include death due to progressive disease): 5 (2.3) N (%) | AESI: Cytokine release syndrome (R/R NHL patients [2]; per ASTCT criteria, N = 213): 79 (37.1) N (%) | mosunetuzumab PK in combination with lenalidomide compared with monotherapy [3]: similar; also recorded: consistent with what was expected | observed concentration measurements vs popPK model simulated 5th to 95th prediction intervals [3]: fell generally within | AESI by PT: Alanine aminotransferase increased [4]: 1 (6.3%) | AESI by PT: Aspartate aminotransferase increased [4]: 1 (6.3%) | AESI by PT: Cytokine release syndrome [4]: 5 (31.3%) | AESI by PT: Neutropenia [4]: 4 (25.0%) | AESI by PT: Pleural effusion [4]: 1 (6.3%) | AESI by PT: Thrombocytopenia [4]: 1 (6.3%) | AESI: Overall total number of events [4]: 20 | Blood and lymphatic system disorders: Total number of AESI events [4]: 10 | Blood and lymphatic system disorders: Total number of Grade 3-5 events [4]: 9 | Blood and lymphatic system disorders: patients with at least one AESI [4]: 4 (25.0%) | Blood and lymphatic system disorders: patients with at least one Grade 3-5 AE [4]: 4 (25.0%) | Grade 3-5 AE: Erythema (Skin and subcutaneous tissue disorders) [4]: 1 (6.3%) | Grade 3-5 AE: Erythema (listed under Investigations) [4]: 1 (6.3%) | Grade 3-5 AE: Neutropenia [4]: 4 (25.0%) | Grade 3-5 AE: Rash maculo-papular (Skin and subcutaneous tissue disorders) [4]: 1 (6.3%) | Grade 3-5 AE: Rash maculo-papular (listed under Investigations) [4]: 1 (6.3%) | Immune system disorders: Total number of AESI events [4]: 7 | Immune system disorders: patients with at least one AESI [4]: 5 (31.3%) | Investigations: Total number of AESI events [4]: 2 | Investigations: Total number of Grade 3-5 events [4]: 2 | Investigations: patients with at least one AESI [4]: 1 (6.3%) | Investigations: patients with at least one Grade 3-5 AE [4]: 1 (6.3%) | Respiratory, thoracic, and mediastinal disorders: Total number of AESI events [4]: 1 | Respiratory, thoracic, and mediastinal disorders: patients with at least one AESI [4]: 1 (6.3%) | Skin and subcutaneous tissue disorders: Total number of Grade 3-5 events [4]: 2 | Skin and subcutaneous tissue disorders: patients with at least one Grade 3-5 AE [4]: 2 (12.5%) | Total number of patients with at least one AESI [4]: 7 (43.8) % | Total number of patients with at least one Grade 3-5 AE [4]: 5 (31.3%) | AESI: Neutropenia/neutrophil count decrease (R/R NHL patients [5]): 56 (26.3) N (%)
